The target of this test is androgen receptor (AR) (human (endogenous in LNCaP and C4-2)) (UniProt P10275). Nature of the test: co-IP; lysates (RIPA buffer) of LNCaP and C4-2 cells transfected with siNC or siKMT2D; immunoprecipitation with primary antibody and Protein A/G agarose at 4 °C, western blot for AR and E3 ubiquitin ligases; which protein was precipitated is not stated for this panel. For orientation: In western blotting, separated proteins are transferred to a membrane and probed.
UniProt P10275, sequence (P10275 whole entry): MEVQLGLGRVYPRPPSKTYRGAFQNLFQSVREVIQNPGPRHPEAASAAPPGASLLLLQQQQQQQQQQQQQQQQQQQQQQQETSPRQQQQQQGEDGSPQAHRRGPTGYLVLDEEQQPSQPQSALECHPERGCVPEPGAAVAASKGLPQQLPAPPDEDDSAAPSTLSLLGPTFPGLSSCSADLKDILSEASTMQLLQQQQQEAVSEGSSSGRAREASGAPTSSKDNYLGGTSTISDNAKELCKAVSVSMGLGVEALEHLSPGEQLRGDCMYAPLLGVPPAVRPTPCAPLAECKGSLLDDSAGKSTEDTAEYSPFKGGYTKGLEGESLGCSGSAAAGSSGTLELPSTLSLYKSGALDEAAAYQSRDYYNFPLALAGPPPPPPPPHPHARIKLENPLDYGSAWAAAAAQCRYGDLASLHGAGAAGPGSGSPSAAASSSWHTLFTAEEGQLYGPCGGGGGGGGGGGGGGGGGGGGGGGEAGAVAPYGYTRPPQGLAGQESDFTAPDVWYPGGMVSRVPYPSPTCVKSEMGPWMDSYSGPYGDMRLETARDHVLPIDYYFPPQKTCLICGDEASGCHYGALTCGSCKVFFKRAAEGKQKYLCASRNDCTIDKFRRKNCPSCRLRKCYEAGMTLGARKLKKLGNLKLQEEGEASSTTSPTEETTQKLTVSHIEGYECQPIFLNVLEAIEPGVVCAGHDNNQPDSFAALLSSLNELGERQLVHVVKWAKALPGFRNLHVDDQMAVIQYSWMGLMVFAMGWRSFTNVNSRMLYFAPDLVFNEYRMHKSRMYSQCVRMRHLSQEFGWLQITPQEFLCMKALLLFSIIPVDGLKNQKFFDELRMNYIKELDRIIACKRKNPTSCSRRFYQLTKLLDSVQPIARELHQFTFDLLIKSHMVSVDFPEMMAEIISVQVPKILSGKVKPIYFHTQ

“Speckle Type BTB/POZ protein (SPOP) (from UniProt O43791 1-374) (natural protein)”: the fold change of SPOP bound to AR after KMT2D knockdown against control (C4-2 cells) came out at 1.57 fold and the fold change of SPOP bound to AR after KMT2D knockdown against control (LNCaP cells) is 1.41 fold.

The record behind these values is article PMC12623541.
